Values of other authors, collected in PMC2627783.

Molecular target: IscU (Escherichia coli) (UniProt P0ACD4)
Test: ITC

IscU (Escherichia coli), sequence (P0ACD4 whole entry): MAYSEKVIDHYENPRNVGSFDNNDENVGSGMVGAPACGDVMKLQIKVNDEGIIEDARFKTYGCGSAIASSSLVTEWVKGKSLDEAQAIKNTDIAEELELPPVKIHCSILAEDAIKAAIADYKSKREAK
HscB, sequence (P0A6L9 whole entry): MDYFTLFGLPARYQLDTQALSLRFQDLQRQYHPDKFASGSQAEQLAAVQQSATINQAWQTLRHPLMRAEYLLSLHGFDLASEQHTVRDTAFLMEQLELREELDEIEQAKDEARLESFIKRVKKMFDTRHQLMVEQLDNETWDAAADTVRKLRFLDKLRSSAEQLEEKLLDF

HscB (from UniProt P0A6L9)
Kd: 10 µM
